Assay results taken from publication PMC3185932, “A truncated form of CD9-partner 1 (CD9P-1), GS-168AT2, potently inhibits in vivo tumour-induced angiogenesis and tumour growth” (British Journal of Cancer, 2011).

Target: the molecule itself
Assay: SDS-PAGE (Coomassie blue) and Western blot of the purified protein; purified GS-168AT2; 36 kDa band seen by Coomassie blue and recognised by 229T mAb

B1: GS-168AT2, truncated form of CD9 partner-1 (CD9P-1), amino acid 724-832 (domain or fragment, human, UniProt Q9P2B2 724-832, looked up)
chain: DMAFDVSWFAVHSFGLDKAPVLLSSLDRKGIVTTSRRDWKSDLSLERVSVLEFLLQVHGSEDQDFGNYYCSVTPWVKSPTGSWQKEAEIHSKPVFITVKMDVLNAFKYP
notes: CD9 partner-1 (CD9P-1/FPRP/EWI-F), human, amino acid 724-832: the unglycosylated extracellular portion next to the transmembrane domain; cDNA from RNA of human endothelial cells; no removal of the tag is described. pET-30 EK/LIC is known to add His and S tags at the N-terminus (surmised); also called truncated CD9P-1; source: E. coli BL21(DE3)pLys, purified from the insoluble fraction in urea …
binding result: binds
